Measurements as given in article PMC9585388 (Research and Practice in Thrombosis and Haemostasis, 2022).

Biological target: T1, fibrinogen (UniProt P02671-2;P02675;P02679-2)
T1 sequence 1: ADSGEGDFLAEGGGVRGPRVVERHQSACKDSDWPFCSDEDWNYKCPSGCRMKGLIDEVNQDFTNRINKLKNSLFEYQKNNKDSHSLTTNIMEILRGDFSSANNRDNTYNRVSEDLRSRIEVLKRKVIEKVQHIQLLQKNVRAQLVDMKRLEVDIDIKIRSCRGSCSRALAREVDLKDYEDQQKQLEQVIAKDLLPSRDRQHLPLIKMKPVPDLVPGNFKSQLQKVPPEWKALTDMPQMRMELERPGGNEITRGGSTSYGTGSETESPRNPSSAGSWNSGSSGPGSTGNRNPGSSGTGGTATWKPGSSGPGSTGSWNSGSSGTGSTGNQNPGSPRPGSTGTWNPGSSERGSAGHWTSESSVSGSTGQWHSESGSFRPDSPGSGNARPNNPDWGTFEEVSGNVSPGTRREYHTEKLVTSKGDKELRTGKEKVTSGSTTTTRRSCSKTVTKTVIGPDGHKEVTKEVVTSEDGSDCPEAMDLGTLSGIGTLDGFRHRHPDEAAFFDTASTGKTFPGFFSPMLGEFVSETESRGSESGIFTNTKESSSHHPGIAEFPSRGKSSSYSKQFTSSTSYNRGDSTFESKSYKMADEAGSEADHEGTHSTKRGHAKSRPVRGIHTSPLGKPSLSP
T1 sequence 2: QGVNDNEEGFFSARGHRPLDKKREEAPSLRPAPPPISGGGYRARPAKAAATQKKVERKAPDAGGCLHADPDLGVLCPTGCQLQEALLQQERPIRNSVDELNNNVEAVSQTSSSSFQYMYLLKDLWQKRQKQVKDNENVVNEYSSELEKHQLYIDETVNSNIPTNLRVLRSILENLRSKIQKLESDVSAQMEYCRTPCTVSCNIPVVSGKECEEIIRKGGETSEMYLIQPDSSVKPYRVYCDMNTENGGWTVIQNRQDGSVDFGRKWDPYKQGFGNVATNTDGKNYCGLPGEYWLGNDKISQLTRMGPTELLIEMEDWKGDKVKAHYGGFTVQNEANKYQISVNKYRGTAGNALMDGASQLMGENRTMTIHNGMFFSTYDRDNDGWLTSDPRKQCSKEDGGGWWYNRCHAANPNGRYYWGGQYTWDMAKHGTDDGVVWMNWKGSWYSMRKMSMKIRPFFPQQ
T1 sequence 3: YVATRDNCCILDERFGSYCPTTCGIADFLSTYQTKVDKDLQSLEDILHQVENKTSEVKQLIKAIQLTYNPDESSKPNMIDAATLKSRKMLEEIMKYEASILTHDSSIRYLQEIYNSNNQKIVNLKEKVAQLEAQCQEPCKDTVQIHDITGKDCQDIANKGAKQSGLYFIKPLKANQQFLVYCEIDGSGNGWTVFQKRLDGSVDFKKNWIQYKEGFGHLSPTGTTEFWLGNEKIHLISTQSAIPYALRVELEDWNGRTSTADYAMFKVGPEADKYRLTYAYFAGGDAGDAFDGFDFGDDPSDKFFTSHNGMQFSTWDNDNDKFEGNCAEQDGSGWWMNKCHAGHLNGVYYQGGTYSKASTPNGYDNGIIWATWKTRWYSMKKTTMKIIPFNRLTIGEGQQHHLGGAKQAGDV
Experiment: BLI

Kd: 46.9 nM
B1: recombinant FXIII‐B (natural protein)
chain: EEKPCGFPHVENGRIAQYYYTFKSFYFPMSIDKKLSFFCLAGYTTESGRQEEQTTCTTEGWSPEPRCFKKCTKPDLSNGYISDVKLLYKIQENMRYGCASGYKTTGGKDEEVVQCLSDGWSSQPTCRKEHETCLAPELYNGNYSTTQKTFKVKDKVQYECATGYYTAGGKKTEEVECLTYGWSLTPKCTKLKCSSLRLIENGYFHPVKQTYEEGDVVQFFCHENYYLSGSDLIQCYNFGWYPESPVCEGRRNRCPPPPLPINSKIQTHSTTYRHGEIVHIECELNFEIHGSAEIRCEDGKWTEPPKCIEGQEKVACEEPPFIENGAANLHSKIYYNGDKVTYACKSGYLLHGSNEITCNRGKWTLPPECVENNENCKHPPVVMNGAVADGILASYATGSSVEYRCNEYYLLRGSKISRCEQGKWSSPPVCLEPCTVNVDYMNRNNIEMKWKYEGKVLHGDLIDFVCKQGYDLSPLTPLSELSVQCNRGEVKYPLCTRKESKGMCTSPPLIKHGVIISSTVDTYENGSSVEYRCFDHHFLEGSREAYCLDGMWTTPPLCLEPCTLSFTEMEKNNLLLKWDFDNRPHILHGEYIEFICRGDTYPAELYITGSILRMQCDRGQLKYPRCIPRQSTLSYQEPLRT
